Residue numbers refer to the chain shown, from its start.
B1: Example 45 (peptide)
chain: YXQGTFTSDFSKXLDKKAQXAFIEYLLEXGPSSGAPPPSGS
modifications: Aib, αMeL, acylated Lys, C-terminal amide; synthetic construct; SITE 2: note = 2-Aminoisobutyric Acid; SITE 13: note = alpha-methyl-leucine; SITE 17: note = Lysine is chemically modified through conjugation of the epsilon-amino group of the Lysine side chain with (2-[2-(2-Amino-ethoxy)-ethoxy]-acetyl)-(gamma-Glu)-CO-(CH2) 18-CO2H; SITE 20: n
B2: Example 46 (peptide)
chain: B1 chain with A35E, G40E, S41G
modifications: Aib, αMeL; acylated Lys; C-terminal amide; synthetic construct; SITE 2: note = 2-Aminoisobutyric Acid; SITE 13: note = alpha-methyl-leucine; SITE 17: note = Lysine is chemically modified through conjugation of the epsilon-amino group of the Lysine side chain with (2-[2-(2-Amino-ethoxy)-ethoxy]-acetyl)-(gamma-Glu)-CO-(CH2) 16-CO2H; SITE 20: n
B3: Example 48 (peptide)
chain: B1 chain with X29G, G40E, S41G
modifications: not fully specified; synthetic construct; SITE 2: note = 2-Aminoisobutyric Acid; SITE 13: note = alpha-methyl-leucine; SITE 17: note = Lysine is chemically modified through conjugation of the epsilon-amino group of the Lysine side chain with (2-[2-(2-Amino-ethoxy)-ethoxy]-acetyl)-(gamma-Glu)-CO-(CH2) 16-CO2H; SITE 20: n
B4: Example 49 (peptide)
chain: B1 chain with L27I, X29G, G40E, S41G
modifications: not fully specified; acylated side chain; synthetic construct; SITE 2: note = 2-Aminoisobutyric Acid; SITE 13: note = alpha-methyl-leucine; SITE 17: note = Lysine is chemically modified through conjugation of the epsilon-amino group of the Lysine side chain with (2-[2-(2-Amino-ethoxy)-ethoxy]-acetyl)-(gamma-Glu)-CO-gamma -gamma-(CH2)16-CO2H
B5: Example 50 (peptide)
chain: B1 chain with K12X, X29G, G40E, S41G
modifications: synthetic construct; SITE 2: note = 2-Aminoisobutyric Acid; SITE 12: note = L-ornithine; SITE 13: note = alpha-methyl-leucine; SITE 17: note = Lysine is chemically modified through conjugation of the epsilon-amino group of the Lysine side chain with (2-[2-(2-Amino-ethoxy)-ethoxy]-acetyl)-(gamma-Glu)
B6: Example 51 (peptide)
chain: B1 chain with A21Q, X29G, G40E, S41G
modifications: synthetic construct; SITE 2: note = 2-Aminoisobutyric Acid; SITE 13: note = alpha-methyl-leucine; SITE 17: note = Lysine is chemically modified through conjugation of the epsilon-amino group of the Lysine side chain with (2-[2-(2-Amino-ethoxy)-ethoxy]-acetyl)-(gamma-Glu)-CO-(CH2) 16-CO2H; SITE 20: n
B7: Example 55 (peptide)
chain: B1 chain with S39G, G40E, S41G
modifications: synthetic construct; SITE 2: note = 2-Aminoisobutyric Acid; SITE 13: note = alpha-methyl-leucine; SITE 17: note = Lysine is chemically modified through conjugation of the epsilon-amino group of the Lysine side chain with (2-[2-(2-Amino-ethoxy)-ethoxy]-acetyl)2-(gamma-Glu)-CO-(CH2 )18-CO2H; SITE 20:
B8: Example 57 (peptide)
chain: B1 chain with G40E, S41G
modifications: synthetic construct; SITE 2: note = 2-Aminoisobutyric Acid; SITE 13: note = alpha-methyl-leucine; SITE 17: note = Lysine is chemically modified through conjugation of the epsilon-amino group of the Lysine side chain with (2-[2-(2-Amino-ethoxy)-ethoxy]-acetyl)-(gamma-Glu)-CO-(CH2) 16-CO2H; SITE 20: n
B9: Example 58 (peptide)
chain: B1 chain with X29G, G40E, S41G
modifications: synthetic construct; SITE 2: note = 2-Aminoisobutyric Acid; SITE 13: note = alpha-methyl-leucine; SITE 17: note = Lysine is chemically modified through conjugation of the epsilon-amino group of the Lysine side chain with (gamma-Glu)2-CO-(CH2)16-CO2H; SITE 20: note = 2-Aminoisobutyric Acid; SITE 41:
B10: Example 62 (peptide)
chain: B1 chain with K12X, X29G, S39G
modifications: synthetic construct; SITE 2: note = 2-Aminoisobutyric Acid; SITE 12: note = L-ornithine; SITE 13: note = alpha-methyl-leucine; SITE 17: note = Lysine is chemically modified through conjugation of the epsilon-amino group of the Lysine side chain with (2-[2-(2-Amino-ethoxy)-ethoxy]-acetyl)-(gamma-Glu)
B11: Example 66 (peptide)
chain: YXQGTFTSDFSXXLDKKAQXAFIEYLLEGGPSSGAPPPGGSX
modifications: synthetic construct; SITE 2: note = 2-Aminoisobutyric Acid; SITE 12: note = L-ornithine; SITE 13: note = alpha-methyl-leucine; SITE 17: note = Lysine is chemically modified through conjugation of the epsilon-amino group of the Lysine side chain with (2-[2-(2-Amino-ethoxy)-ethoxy]-acetyl)-(gamma-Glu)

molecular target: T1, human GIP receptor (human) (UniProt P48546); assay: cell-based or functional assay
T1 sequence (looked up): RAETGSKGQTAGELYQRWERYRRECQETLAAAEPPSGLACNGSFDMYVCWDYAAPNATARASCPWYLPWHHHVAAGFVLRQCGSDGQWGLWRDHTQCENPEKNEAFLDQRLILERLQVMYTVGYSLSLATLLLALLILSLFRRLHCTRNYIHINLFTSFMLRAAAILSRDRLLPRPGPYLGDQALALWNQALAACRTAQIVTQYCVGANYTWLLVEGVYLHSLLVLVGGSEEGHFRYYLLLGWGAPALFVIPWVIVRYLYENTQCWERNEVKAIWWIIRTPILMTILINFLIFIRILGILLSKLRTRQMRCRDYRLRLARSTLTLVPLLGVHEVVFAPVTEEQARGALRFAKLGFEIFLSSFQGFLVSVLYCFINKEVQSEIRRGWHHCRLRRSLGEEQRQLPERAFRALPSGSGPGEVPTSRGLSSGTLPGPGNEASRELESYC

B1 and B2 are within 1.5-fold of each other in Relative cAMP EC50: 0.112 nM for the first, 0.0947 nM for the second.

B3 and B4 are within 1.5-fold of each other in Relative cAMP EC50: 0.27 nM for the first, 0.324 nM for the second.

B5 and B6 are within 1.5-fold of each other in Relative cAMP EC50: 0.29 nM for the first, 0.421 nM for the second.

B7 and B8 are within 1.5-fold of each other in Relative cAMP EC50: 0.0856 nM for the first, 0.098 nM for the second.

B9 and B10 are within 1.5-fold of each other in Relative cAMP EC50: 0.175 nM for the first, 0.146 nM for the second.

B11 was tested, and the Relative cAMP EC50 was 0.219 nM.

First: B1
Second: B2
The cAMP Rel EC50 (in the presence of 1% HSA) of the first is 1.7-fold higher: 33.4 nM for the first, 19.6 nM for the second.

B3 and B4 are within 1.5-fold of each other in cAMP Rel EC50, nM (in the presence of 1% HSA): 46.9 nM for the first, 44.9 nM for the second.

B5 and B6 are within 1.5-fold of each other in cAMP Rel EC50, nM (in the presence of 1% HSA): 69.6 nM for the first, 98.4 nM for the second.

Going from B7 to B8, the cAMP Rel EC50, nM (in the presence of 1% HSA) falls from 27.8 nM to 3.78 nM (7.4-fold).

First: B9
Second: B10
The cAMP Rel EC50, nM (in the presence of 1% HSA) of the first is 8.3-fold lower: 3.75 nM for the first, 31.2 nM for the second.

Work on B11 yielded a cAMP Rel EC50, nM (in the presence of 1% HSA) of 29.9 nM.

molecular target: hGLP-1R (Homo sapiens, UniProt P43220); assay: cell-based or functional assay
Sequence (P43220 24-463): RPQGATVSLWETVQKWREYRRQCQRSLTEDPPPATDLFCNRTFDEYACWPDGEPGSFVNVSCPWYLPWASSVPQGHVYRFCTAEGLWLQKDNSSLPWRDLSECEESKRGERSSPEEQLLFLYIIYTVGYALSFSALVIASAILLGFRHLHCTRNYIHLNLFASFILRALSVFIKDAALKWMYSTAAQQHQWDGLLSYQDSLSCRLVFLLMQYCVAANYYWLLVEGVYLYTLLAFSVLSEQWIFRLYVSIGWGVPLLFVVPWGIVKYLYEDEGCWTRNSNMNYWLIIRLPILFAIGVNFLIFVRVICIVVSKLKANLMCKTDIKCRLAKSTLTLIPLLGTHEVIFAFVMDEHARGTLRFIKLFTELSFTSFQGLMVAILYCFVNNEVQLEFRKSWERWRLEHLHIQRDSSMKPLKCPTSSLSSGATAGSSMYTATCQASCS

Going from B1 to B2, the Relative cAMP EC50 rises from 1.52 nM to 4.04 nM (2.7-fold).

First: B3
Second: B4
The Relative cAMP EC50 of the first is 4.2-fold higher: 2.99 nM for the first, 0.706 nM for the second.

B5 and B6 are within 1.5-fold of each other in Relative cAMP EC50: 4.65 nM for the first, 5.8 nM for the second.

First: B7
Second: B8
The Relative cAMP EC50 of the first is 1.6-fold lower: 1.96 nM for the first, 3.06 nM for the second.

B9 and B10 are within 1.5-fold of each other in Relative cAMP EC50: 2.93 nM for the first, 2.72 nM for the second.

B11 was tested, and the Relative cAMP EC50 was 3.86 nM.

B1 and B2 are within 1.5-fold of each other in cAMP Rel EC50 (in the presence of 1% HSA): 493 nM for the first, 601 nM for the second.

First: B3
Second: B4
The cAMP Rel EC50, nM (in the presence of 1% HSA) of the first is 3.8-fold higher: 570 nM for the first, 151 nM for the second.

B5 and B6 are within 1.5-fold of each other in cAMP Rel EC50, nM (in the presence of 1% HSA): 1110 nM for the first, 1210 nM for the second.

First: B7
Second: B8
The cAMP Rel EC50, nM (in the presence of 1% HSA) of the first is 11-fold higher: 479 nM for the first, 42.7 nM for the second.

Compared with B9, B10 is 14-fold higher in cAMP Rel EC50, nM (in the presence of 1% HSA): 20.7 nM for the first, 299 nM for the second.

In the case of B11, the cAMP Rel EC50, nM (in the presence of 1% HSA) is reported as 329 nM.

molecular target: human glucagon receptor (human) (UniProt P47871); assay: cell-based or functional assay
Sequence (P47871 26-477): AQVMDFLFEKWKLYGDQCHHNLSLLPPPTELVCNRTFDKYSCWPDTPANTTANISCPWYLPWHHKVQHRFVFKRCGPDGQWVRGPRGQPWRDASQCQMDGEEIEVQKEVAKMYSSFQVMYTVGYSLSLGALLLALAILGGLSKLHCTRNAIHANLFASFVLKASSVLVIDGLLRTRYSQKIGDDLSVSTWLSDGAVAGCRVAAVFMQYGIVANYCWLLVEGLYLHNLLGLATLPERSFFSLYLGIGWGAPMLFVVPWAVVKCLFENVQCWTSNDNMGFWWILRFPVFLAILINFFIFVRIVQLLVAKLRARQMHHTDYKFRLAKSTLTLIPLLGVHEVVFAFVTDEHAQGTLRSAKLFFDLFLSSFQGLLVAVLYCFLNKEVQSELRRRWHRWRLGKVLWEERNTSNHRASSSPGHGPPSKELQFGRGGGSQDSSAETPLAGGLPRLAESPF

B1 and B2 are within 1.5-fold of each other in Relative cAMP EC50: 2.08 nM for the first, 1.53 nM for the second.

B3 and B4 are within 1.5-fold of each other in Relative cAMP EC50: 3.8 nM for the first, 5.54 nM for the second.

B5 and B6 are within 1.5-fold of each other in Relative cAMP EC50: 4.25 nM for the first, 5.15 nM for the second.

B7 and B8 are within 1.5-fold of each other in Relative cAMP EC50: 5.2 nM for the first, 4.37 nM for the second.

B9 and B10 are within 1.5-fold of each other in Relative cAMP EC50: 4.86 nM for the first, 3.96 nM for the second.

In the case of B11, the Relative cAMP EC50 is reported as 3.71 nM.

Compared with B1, B2 is 2.2-fold lower in cAMP Rel EC50 (in the presence of 1% HSA): 879 nM for the first, 393 nM for the second.

Going from B3 to B4, the cAMP Rel EC50, nM (in the presence of 1% HSA) rises from 728 nM to 1310 nM (1.8-fold).

B5 and B6 are within 1.5-fold of each other in cAMP Rel EC50, nM (in the presence of 1% HSA): 1040 nM for the first, 856 nM for the second.

First: B7
Second: B8
The cAMP Rel EC50, nM (in the presence of 1% HSA) of the first is 8.5-fold higher: 960 nM for the first, 113 nM for the second.

Going from B9 to B10, the cAMP Rel EC50, nM (in the presence of 1% HSA) rises from 115 nM to 396 nM (3.4-fold).

In the case of B11, the cAMP Rel EC50, nM (in the presence of 1% HSA) is reported as 415 nM.

molecular target: human GLP1-R (SNAP-GLP-1R expressed in HEK293 cells) (human) (UniProt P43220); assay: cell-based or functional assay
Sequence (P43220 24-463): as the sequence (P43220 24-463) above

B1 and B2 are within 1.5-fold of each other in GLP1R Internalization EC50: 52.6 nM for the first, 41 nM for the second.

B3 and B4 are within 1.5-fold of each other in GLP1R Internalization EC50: 44 nM for the first, 37.2 nM for the second.

Compared with B5, B6 is 3-fold higher in GLP1R Internalization EC50: 30.1 nM for the first, 89.2 nM for the second.

B7 and B8 are within 1.5-fold of each other in GLP1R Internalization EC50: 79.5 nM for the first, 76.6 nM for the second.

B9 and B10 are within 1.5-fold of each other in GLP1R Internalization EC50: 56.2 nM for the first, 40.3 nM for the second.

B11 gave a GLP1R Internalization EC50 of 42.1 nM.

First: B1
Second: B2
The Internalization % TOP of the first is higher: 62.1% for the first, 58.1% for the second.

Compared with B3, B4 is lower in Internalization % TOP: 55.2% for the first, 53.2% for the second.

Compared with B5, B6 is higher in Internalization % TOP: 31.1% for the first, 55.7% for the second.

First: B7
Second: B8
The Internalization % TOP of the first is lower: 70.7% for the first, 73.1% for the second.

Compared with B9, B10 is lower in Internalization % TOP: 78.1% for the first, 44.9% for the second.

B11 showed an Internalization % TOP of 46.3%.

Reference: US20240270821A1, “GIP/GLP1/GCG TRI-RECEPTOR AGONISTS AND USES THEREOF” (priority 2023, published 2024)
